The test has as its target T1, r-Antidote (two-chain polypeptide, SEQ ID NO: 3); processed product of the precursor SEQ ID NO: 2 after … (human, UniProt P00742 80-179); P00742 235-488, in certain production batches: glycosylation at Thr249; in certain production batches: glycosylation at Ser56, Ser72, Ser76 and Thr82; (3R)-3-hydroxyAsp at Asp29).
T1 construct: Light and heavy chain are joined by a disulfide bond, Cys98 of the light chain to Cys108 of the heavy chain; also called fXa antidote; fXa derivative
In words: affinity chromatography with immobilised STI ligand (Example 2). The protocol:
An affinity chromatograph was developed for high-volume extraction of the antidote. The affinity ligand included Kunitz trypsin inhibitor (21 kDa; pI=4.5) extracted from whole soybean or flour. The soybean trypsin inhibitor (STI) forms 1:1 complex with the antidote. A non-competitive inhibitor elution condition was identified for scalability and compatibility, which included 25 mM Na-acetate, 1M Arginine, at pH 5.2.
Affinity column chromatography was performed using Capto STI resin at ambient temperature. During the load phase, the product bound to the resin while contaminants flew through. The product was recovered by disrupting protein interactions with a high concentration of arginine in the elution buffer. Prior to use, the column was rinsed with water for injection (WFI), cleaned with 100 mM Phosphoric Acid pH 3.0, and rinsed with WFI. The column was initially pre-equilibrated with pre-equilibration buffer (20 mM Tris-HCl, pH 7.4), then equilibrated with equilibration buffer (20 mM Tris-HCl, 200 mM NaCl, pH 7.4), and once the pH and conductivity of the column were within specification, it was loaded with Triton-X 100 treated clarified harvest (HCCF). Each cycle of HCCF material was transferred from its viral inactivation hold tank directly to the column.

T1 sequence (P00742 other isoform, or with tags, fused parts or gaps limits assumed, chain 1 of 2): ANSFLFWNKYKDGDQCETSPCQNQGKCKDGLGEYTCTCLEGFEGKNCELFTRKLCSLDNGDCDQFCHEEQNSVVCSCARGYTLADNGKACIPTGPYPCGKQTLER
T1 sequence (P00742 235-488 S419A limits assumed, chain 2 of 2): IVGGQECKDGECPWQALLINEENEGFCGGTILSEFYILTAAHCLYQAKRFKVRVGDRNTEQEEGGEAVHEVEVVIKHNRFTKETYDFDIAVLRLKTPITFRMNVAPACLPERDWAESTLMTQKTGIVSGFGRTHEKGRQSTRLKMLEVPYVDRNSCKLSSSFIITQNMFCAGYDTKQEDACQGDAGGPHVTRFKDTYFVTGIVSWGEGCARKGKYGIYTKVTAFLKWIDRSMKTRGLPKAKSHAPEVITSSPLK

B1: soybean trypsin inhibitor (STI), Kunitz trypsin inhibitor (21 kDa; pI=4.5) extracted from whole soybean or flour (other, soybean (Glycine max), UniProt P01070 25-205, looked up)
chain: DFVLDNEGNPLENGGTYYILSDITAFGGIRAAPTGNERCPLTVVQSRNELDKGIGTIISSPYRIRFIAEGHPLSLKFDSFAVIMLCVGIPTEWSVVEDLPEGPAVKIGENKDAMDGWFRLERVSDDEFNNYKLVFCPQQAEDDKCGDIGISIDHDDGTRRLVVSKNKPLVVQFQKLDKESL
notes: also called STI ligand
As to B1, the binding result is on record as “binds”.

Source of the values: patent publication US20210348149A1 (Alexion, published 2021).
